This note sets out measurements from patent publication US6919086B1, “Graminae pollen allergen mutants for specific immunotherapy, and production and use of the same” (Merck Patent Gesellschaft mit, priority 1997, dated 2005).

What is called IC50 is the concentration that gives 50% inhibition. A low value points to higher potency.

Experiment [1] concerns the target IgE antibodies of the allergic patient serum pool We 6/97. The experiment in a line: EAST inhibition, serum pool We 6/97.
Experiment [2] concerns the target IgE antibodies of the allergic patient serum pool Bor 18/100 (20 donors). The experiment in a line: EAST inhibition, serum pool Bor 18/100.
For experiment [3], the target named is IgE antibodies of the individual allergic patient serum II/3. The experiment in a line: EAST inhibition, individual serum II/3.
The target of experiment [4] is IgE antibodies of the individual allergic patient serum II/12. The experiment in a line: EAST inhibition, individual serum II/12.
Experiment [5] deals with IgE antibodies of the individual allergic patient serum II/17. Put plainly: EAST inhibition, individual serum II/17.
The target in experiment [6] is specific IgE on basophils from the blood of allergic patient. Put plainly: cell-based or functional assay.

B1: natural Phl p 5b, purified by affinity chromatography (protein)
chain: ADAGYAPATPAAAGAAAGKATTEEQKLIEDINVGFKAAVAAAASVPAADKFKTFEAAFTSSSKAAAAKAPGLVPKLDAAYSVAYKAAVGATPEAKFDSFVASLTEALRVIAGALEVHAVKPVTEEPGMAKIPAGELQIIDKIDAAFKVAATAAATAPADDKFTVFEAAFNKAIKESTGGAYDTYKCIPSLEAAVKQAYAATVAAAPQVKYAVFEAALTKAITAMSEVQKVSQPATGAATVAAGAATTAAGAASGAATVAAGGYKV
Regarding B1, the IC50 came to 6.1 nM in experiment [1]; 4.2 nM in experiment [2]; 5.9 nM in experiment [3]; 6.8 nM in experiment [4]; 2.6 nM in experiment [5]. Also, the allergenic potency (Prel) at 25% inhibition (relative to native Phl p 5b) in experiment [1], in experiment [2], in experiment [3], in experiment [4] and in experiment [5] was 1 throughout. In addition, the allergenic potency (Prel) at 50% inhibition (relative to native Phl p 5b) in experiment [1], in experiment [2], in experiment [3], in experiment [4] and in experiment [5] was 1 each time. Further, the inhibition value (inhibitor concentration at 25% inhibition) in experiment [1] worked out at 5.1e-10 mol/L; in experiment [2], 3.3e-10 mol/L; in experiment [3], 5.1e-10 mol/L; in experiment [4], 5.2e-10 mol/L; in experiment [5] it was 2.2e-10 mol/L.

B2: recombinant Phl p 5b (wild type) (protein)
chain: B1 chain
With B2, the half-maximal inhibitory concentration (IC50) was found to be 1400 nM in experiment [1]; 5 nM in experiment [2]; 14 nM in experiment [3]; 73 nM in experiment [4]; 4.7 nM in experiment [5]. Besides, the allergenic potency (Prel) at 25% inhibition (relative to native Phl p 5b) in experiment [1] stood at 1.7; in experiment [2] it was 1.71; in experiment [3] it was 0.903; in experiment [4], 0.597; in experiment [5] it was 1.04. Also, the allergenic potency (Prel) at 50% inhibition (relative to native Phl p 5b) in experiment [1] was 0.44; in experiment [2], 0.841; in experiment [3], 0.419; in experiment [4], 0.093; in experiment [5] it was 0.545. For the same molecule, the inhibition value (inhibitor concentration at 25% inhibition) in experiment [1] amounted to 3e-10 mol/L; in experiment [2] it was 2e-10 mol/L; in experiment [3], 5.6e-10 mol/L; in experiment [4], 8.7e-10 mol/L; in experiment [5], 2.1e-10 mol/L.

B3: rPhl p 5b deletion mutant DM1 (deletion K50-P132, D49L) (protein)
chain: ADAGYAPATPAAAGAAAGKATTEEQKLIEDINVGFKAAVAAAASVPAALAGELQIIDKIDAAFKVAATAAATAPADDKFTVFEAAFNKAIKESTGGAYDTYKCIPSLEAAVKQAYAATVAAAPQVKYAVFEAALTKAITAMSEVQKVSQPATGAATVAAGAATTAAGAASGAATVAAGGYKV
In turn, B3 had a concentration required to bring about a 30% histamine release from basophils, against wild type rPh1 p 5b in experiment [6] of 20 fold higher. Also, the IC50 in experiment [1] turned out to be 17000 nM; in experiment [2] it was 28 nM; in experiment [3] it was 17 nM; in experiment [5], 2 nM. Further, the allergenic potency (Prel) at 25% inhibition (relative to native Phl p 5b) in experiment [1] came to 0.022; in experiment [2], 0.039; in experiment [3], 0.042; in experiment [4], 3.4e-05; in experiment [5], 0.033. Besides, the allergenic potency (Prel) at 50% inhibition (relative to native Phl p 5b) in experiment [1] is 0.0004; in experiment [2], 0.0015; in experiment [3], 0.0035; in experiment [4] it was 1e-10; in experiment [5], 0.001. Further, the inhibition value (inhibitor concentration at 25% inhibition) in experiment [1] turned out to be 2.3e-08 mol/L; in experiment [2], 8.6e-09 mol/L; in experiment [3], 1.2e-08 mol/L; in experiment [4], 1.5e-05 mol/L; in experiment [5], 6.5e-09 mol/L.

B4: rPhl p 5b deletion mutant DM2 (deletion F51-G178, D49L, K50A) (protein)
chain: ADAGYAPATPAAAGAAAGKATTEEQKLIEDINVGFKAAVAAAASVPAALAGAYDTYKCIPSLEAAVKQAYAATVAAAPQVKYAVFEAALTKAITAMSEVQKVSQPATGAATVAAGAATTAAGAASGAATVAAGGYKV
Turning to B4, the concentration required to bring about a 30% histamine release from basophils, against wild type rPh1 p 5b in experiment [6] amounted to 500 fold higher. The same molecule registered an allergenic potency (Prel) at 25% inhibition (relative to native Phl p 5b) in experiment [5] of 2.9e-12.
